Test results from the Immune Epitope Database (IEDB).
pIC50, pKd: −log10 of the molar value. One block for each sequence: values may come before it.

How the values were obtained:
[1] = target: HLA-A*24:02; assay: IEDB peptide-MHC binding, purified MHC/competitive/fluorescence; ≥ and ≤ were set here for values at or beyond the usual limits of such assays
[2] = target: HLA-B*44:02; assay: IEDB peptide-MHC binding, purified MHC/competitive/radioactivity; filed as Kd, often an IC50 or EC50 that approximates it; ≥ and ≤ were set here for values at or beyond the usual limits of such assays; settings: source organism: Dengue virus 2 Jamaica/1409/1983
[3] = target: HLA-B*44:03; assay: as above
[4] = target: HLA-A*01:01; assay: as above
[5] = target: HLA-A*23:01; assay: as above
[6] = target: HLA-A*24:02; assay: as above
[7] = target: HLA-A*26:01; assay: as above
[8] = target: HLA-A*29:02; assay: as above
[9] = target: HLA-A*30:02; assay: as above
[10] = target: HLA-A*68:02; assay: as above
[11] = target: HLA-A*03:01; assay: as above; settings: source organism: Vaccinia virus WR
[12] = target: HLA-A*11:01; assay: as above; settings: source organism: Vaccinia virus WR
[13] = target: HLA-A*31:01; assay: as above; settings: source organism: Vaccinia virus WR
[14] = target: HLA-A*33:01; assay: as above; settings: source organism: Vaccinia virus WR
[15] = target: HLA-A*68:01; assay: as above; settings: source organism: Vaccinia virus WR
[16] = target: HLA-A*26:01; assay: IEDB peptide-MHC binding, purified MHC/direct/fluorescence; filed as Kd, often an IC50 or EC50 that approximates it; ≥ and ≤ were set here for values at or beyond the usual limits of such assays
[17] = target: HLA-A*02:01; assay: IEDB peptide-MHC binding, purified MHC/competitive/fluorescence; ≥ and ≤ were set here for values at or beyond the usual limits of such assays; settings: source organism: Sudan ebolavirus
[18] = target: HLA-B*40:01; assay: IEDB peptide-MHC binding, purified MHC/competitive/radioactivity; filed as Kd, often an IC50 or EC50 that approximates it; ≥ and ≤ were set here for values at or beyond the usual limits of such assays
[19] = target: HLA-B*15:01; assay: as above; settings: source organism: Dengue virus 1 Brazil/97-11/1997
[20] = target: HLA-B*07:02; assay: as above; settings: source organism: Dengue virus 2 Jamaica/1409/1983
[21] = target: HLA-B*51:01; assay: as above; settings: source organism: Dengue virus 2 Jamaica/1409/1983
[22] = source organism: Sudan ebolavirus
[23] = source organism: Dengue virus 2 Jamaica/1409/1983
[24] = source organism: SARS coronavirus Tor2
[25] = source organism: Dengue virus 1 Brazil/97-11/1997
[26] = source organism: Mammarenavirus whitewaterense
[27] = source organism: Vaccinia virus WR
[28] = source organism: Zaire ebolavirus
[29] = source organism: Mammarenavirus juninense
[30] = source organism: Mammarenavirus brazilense
[31] = source organism: Mammarenavirus lassaense

Sequence: AEGVIAFLI
pIC50 [1, 22]: 6.36

Sequence: AEMEEALRG
pKd [2]: 8.33
pKd [3, 23]: 7.88

Sequence: DSFKEELDKY
pKd [4, 24]: 6.12
pKd [5, 24]: ≤ 4.15
pKd [6, 24]: ≤ 4.15
pKd [7, 24]: 6.38
pKd [8, 24]: 6.40
pKd [9, 24]: 6.52

Sequence: DYRHYSASF
pKd [4, 24]: ≤ 4.38
pKd [5, 24]: 7.05
pKd [6, 24]: 6.67
pKd [7, 24]: 5.13
pKd [8, 24]: 7.59
pKd [9, 24]: 5.36

Sequence: EAAAIFMTA
pKd [10, 25]: 9.52

Sequence: EGCPKPHRL
pKd [4, 26]: 4.86
pKd [5, 26]: ≤ 4.11
pKd [6, 26]: ≤ 4.33
pKd [7, 26]: ≤ 4.11
pKd [8, 26]: ≤ 4.36
pKd [9, 26]: 4.91

Sequence: EKEFLRYLL
pIC50 ([1]; source organism: Vaccinia virus): ≤ 3.93

Sequence: ELMMATIGI
pKd [10, 23]: 8.99

Sequence: ESRPFDLIKK
pKd [11]: 6.63
pKd [12]: 7.13
pKd [8, 27]: ≤ 4.15
pKd [13]: 6.59
pKd [14]: 6.00
pKd [15]: 8.67

Sequence: EYTYPDSLE
pIC50 [1, 28]: ≤ 3.72

Sequence: FVLALLAFF
pKd ([16]; source organism: West Nile virus): ≤ 4.70

Sequence: GMEAQFLYLY
pKd [4, 24]: 6.74
pKd [5, 24]: ≤ 4.33
pKd [6, 24]: ≤ 4.24
pKd [7, 24]: 4.91
pKd [8, 24]: 7.54
pKd [9, 24]: 6.83

Sequence: GYQPYRVVVL
pKd [4, 24]: ≤ 4.15
pKd [5, 24]: 7.27
pKd [6, 24]: 6.70
pKd [7, 24]: ≤ 4.16
pKd [8, 24]: 5.91
pKd [9, 24]: ≤ 4.10

Sequence: HISRQRLTKY
pKd [4, 24]: 4.92
pKd [5, 24]: ≤ 4.15
pKd [6, 24]: ≤ 4.15
pKd [7, 24]: 5.94
pKd [8, 24]: 5.99
pKd [9, 24]: 6.24

Sequence: HTKKEMRSF
pKd ([16]; source organism: Bacillus cereus NVH0597-99): 7.82

Sequence: HWVPTSRTTW
pKd [5, 23]: 6.13
pKd [6, 23]: 6.22

Sequence: IAWIPYFGP
pIC50 [17]: 4.57
pIC50 [1, 22]: 4.25

Sequence: IEAGRTLRVL
pKd [18, 23]: 6.77

Sequence: IENSTANVSL
pKd ([18]; source organism: Dengue virus 3 Martinique/1243/1999): 8.22

Sequence: ISHRPVVLT
pIC50 ([1]; source organism: Variola virus): 5.86

Sequence: ISKIPGGNMY
pKd [4, 25]: ≤ 4.56
pKd [9, 25]: 7.81
pKd [19]: 6.86

Sequence: IVNAQPKCN
pIC50 [1, 28]: 5.05

Sequence: KWADNNCYL
pKd [4, 24]: ≤ 4.11
pKd [5, 24]: 5.47
pKd [6, 24]: 5.31
pKd [7, 24]: ≤ 4.11
pKd [8, 24]: ≤ 4.08
pKd [9, 24]: ≤ 4.10

Sequence: LDHVNTLHF
pKd [4, 29]: 4.71
pKd [5, 29]: 5.29
pKd [6, 29]: 4.98
pKd [7, 29]: ≤ 4.11
pKd [8, 29]: ≤ 4.20
pKd [9, 29]: ≤ 4.33

Sequence: LEENVEVEI
pKd [18, 23]: 7.96

Sequence: LEIGKLPQHL
pKd [18, 25]: 6.84

Sequence: LGYCMIRWL
pIC50 [1, 27]: ≤ 4.10

Sequence: LWEGSPGKFW
pKd [5, 25]: 5.65

Sequence: LWEKLCYLI
pKd [5, 30]: 6.58
pKd [6, 30]: 5.54
pKd [8, 30]: 5.35

Sequence: LYNSTFFSTF
pKd [4, 24]: 4.99
pKd [5, 24]: 9.02
pKd [6, 24]: 9.20
pKd [7, 24]: 6.08
pKd [8, 24]: 6.21
pKd [9, 24]: 5.94

Sequence: MAIGIVSILL
pKd [10, 25]: 7.82

Sequence: MCPFLFLAV
pKd [4, 31]: 6.31
pKd [5, 31]: ≤ 4.29
pKd [6, 31]: ≤ 4.11
pKd [7, 31]: ≤ 4.11
pKd [8, 31]: 5.77
pKd [9, 31]: ≤ 4.51

Sequence: MGLLCLTLF
pKd ([5]; source organism: Dengue virus 4 Philippines/H241/1956): 6.35

pIC50 ([1]; source organism: Mus musculus): 5.76
Sequence: MILPMSRAF

Sequence: MPVTHSSAAQ
pKd [20]: ≤ 4.70
pKd [21]: ≤ 4.16

Sequence: MVNGVVRLL
pKd [10, 23]: 7.59

Sequence: NEVHTWTEQY
pKd [3, 25]: 6.86

Sequence: NIDATSTGNY
pKd [4, 24]: 6.96
pKd [5, 24]: ≤ 4.15
pKd [6, 24]: ≤ 4.15
pKd [7, 24]: 6.05
pKd [8, 24]: 5.26
pKd [9, 24]: 5.85
